Where no end group is shown, it is not given here. [ ]: non-standard residue; d: D form. 2Thi = N[C@@H](Cc1cccs1)C(=O)O
Molecular target: B2 receptor
Test: cell-based or functional assay

Chain of B2 receptor (P30411 whole entry): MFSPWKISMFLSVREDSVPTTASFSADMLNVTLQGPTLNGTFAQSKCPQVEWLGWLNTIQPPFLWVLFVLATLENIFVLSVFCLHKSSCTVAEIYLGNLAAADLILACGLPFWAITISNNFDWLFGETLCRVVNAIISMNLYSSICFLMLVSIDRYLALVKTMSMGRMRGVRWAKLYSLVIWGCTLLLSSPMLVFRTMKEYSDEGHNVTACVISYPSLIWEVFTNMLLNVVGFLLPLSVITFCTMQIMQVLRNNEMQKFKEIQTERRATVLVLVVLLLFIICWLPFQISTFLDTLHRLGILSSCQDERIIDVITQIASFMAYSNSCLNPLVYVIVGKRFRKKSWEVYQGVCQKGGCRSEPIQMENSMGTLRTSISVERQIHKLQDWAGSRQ

Row | Binder | Relative affinity activity (B2-NFAT-CHO-K1 luciferase reporter gene assay, from EC50) [%]
1 | KRPPGXSPF ({THI} (β-2-thiophenylalanine) at position 6: KRPPG{THI}SPF) [Lys-BKm05] | < 10
2 | [2Thi]SPFR [Lys-BKm09] | 0
3 | CRPPG[2Thi]SPFR [Lys-BKm15] | 125
4 | PG[2Thi]SPFR [Lys-BKm08] | < 10
5 | SPFR [Lys-BKm10] | 0
6 | CRRRPPG[2Thi]SPFR [Lys-BKm16] | 120
7 | CRRPPG[2Thi]SPFR [Lys-BKm13] | 115
8 | RPPG[2Thi]SPFR [Lys-BKm02] | 100

Reference: patent publication US20250295792A1, “POLYETHYLENE GLYCOL-MODIFIED FORM OF KININ OR DERIVATIVE THEREOF AND PHARMACEUTICAL USE THEREOF” (ZonHon Biopharma Institute, Inc., priority 2022, published 2025)
